According to patent US20230227580A1, “ANTI-VWF ANTIBODIES AND USES THEREOF” (MONASH UNIVERSITY, priority 2020, published 2023):
Entries after “also recorded” stand apart in the source; their conditions may differ.

How the values were obtained:
[1] = tested on: thrombus formation / platelet deposition; test: Thrombus formation on collagen type I in stenosis channels (SRG versus constant shear); type: cell-based, human; settings: for Thrombus formation: 15 minutes of blood flow
Source text: In-house designed PDMS microfluidic chips (FIG. 1A) contained channels of 52 µm height with a footprint of 300 µm x 46 mm (used in FIG. 1) or 300 µm x 17 mm. Selected channels incorporated a semi-circular stenotic section of various lengths (600 µm, 1000 µm or 2000 µm diameter), creating 80% lumen reduction. Chips were manufactured as previously reported (Westein et al. Proceedings of the National Academy of Sciences of the United States of America. 2013 Jan 22;110(4):1357-62). The produced PDMS chips were sealed with cover slips by hydrophobic interaction and coated with collagen by perfusion of collagen solution followed by static incubation at RT for at least 1 hr. Channels were rinsed with PBS and blocked with 2% BSA. Wall shear rates of the input flow for these microchannels were approximated from volumetric flow rates by using the equation, γ = 6Q/wh2. Herein, γ is the wall shear rate (s^-1), Q the volumetric flow rate (mls^-1), w the channel with (cm) and h the channel height (cm).
(§1) Citrated whole blood was incubated with DiOC6 (0.5 µg ml^-1) (Sigma-Aldrich Co, St. Louis, MO, USA) and drawn through microfluidic channels by a programmable syringe pump (Legato 130, KD Scientific, USA). Time-lapse z-stack images of platelet deposition were captured in multiple track, resonant scanning mode, using a Nikon A1R confocal microscope system. Platelet deposition was recorded over time (2 frames per minute) for up to 20 minutes and quantified in ImageJ using a Z-projection of the acquired signal.

[2] = tested on: VWF-GPIb binding (plasma VWF, isolated platelets); test: Ristocetin-induced platelet agglutination test (RIPA); type: cell-based, human
Description: Platelet-poor plasma (PPP; source of plasma VWF) was prepared by centrifugation of citrated whole blood at 300 × g for 10 min to obtain platelet rich plasma (PRP) and further centrifugation of the PRP fraction at 1700 × g for 7 min. Isolated platelets (3 × 10^8/ml) suspended in platelet wash buffer (4.3 mM K2HPO4, 4.3 mM Na2HPO4, 24.3 mM NaH2PO4, 113 mM NaCl, 5.5 mM D-glu cose, and 10 mM theophylline, pH 6.5) were centrifuged at 1500 × g for 7 min. The washed platelets were subsequently resuspended at the same concentration in modified Tyrode’s buffer (10 mM Hepes, 12 mM NaHCO3, 137 mM NaCl, 2.7 mM KCI and 5 mM glucose, pH 7.3) containing calcium (1 mM), magnesium (1 mM) and apyrase (0.02 U ml^-1) (ADPase activity). Isolated platelets (150, 300 µL at 3 × 10^8/ml) and platelet poor plasma (50 µl) were incubated with 2, 2.5, 4, 5, 40 and 80 µg ml^-1 scFv A1 and the corresponding concentration of control scFv, or Tyrode’s buffer was used to neutralise any other aggregation mechanisms beside the VWF A1-GPlbα interaction. Platelet agglutination in response to 0.75 mg mL^-1 ristocetin (Helena Biosciences, Gateshead, UK) and in the presence of the αIIbβ3 (GPIIb/IIIa) blocker Integrilin was performed for 10 min on an AggRam system from Helena Laboratories, USA

[3] = molecular target: T1, denatured full length VWF (Homo sapiens, UniProt P04275); test: Western blot of denatured VWF probed with scFv A1; type: binding; settings: scFv A1 1 µg ml^-1; SDS-PAGE denatured VWF
T1 construct: Denatured full length VWF (Mybiosource, USA) was electrophoresed; purchased Mybiosource
Description: Denatured full length VWF (Mybiosource, USA) was electrophoresed at 0.1, 10, 100 ng and 1 µg using 5% SDS-Polyacrylamide gel at 125 V for 90 min. The protein was transferred onto PVDF membrane at 90V for 90 min followed by incubation with 1 µg ml^-1 scFv A1 overnight and the membrane was probed with horse-radish peroxidase (HRP)-conjugated detection antibody (1:2500, Sigma).
Later, the membrane was stripped and reprobed with 1 µg ml^-1 polyclonal sheep anti-VWF antibody (Abcam), followed by donkey anti-sheep HRP-conjugated secondary antibody (1:2500, R&D Systems, USA). Chemiluminescent detection of protein bands was done using ECL Western Blotting Substrate (ThermoFisher) and visualisation using a ChemiDoc Touch Imaging system (Bio-Rad, UK).

[4] = molecular target: T2, isolated VWF A1 domain (Homo sapiens, UniProt P04275); test: ELISA binding to isolated VWF A1 domain; settings: scFv A1 5 µg ml^-1
T2 construct: coated with purified full length VWF or isolated A1 domain
Description: ELISA wells (Thermo Fisher Scientific) were coated with purified full length VWF or isolated A1 domain at 0.1, 1 and 10 µg ml^-1 in the presence of ristocetin (0.75 mg ml^1) and blocked with 2% BSA. Next, the coated wells were incubated with 5 µg ml^-1 of scFv A1 or sheep anti-VWF antibody followed by incubation with an HRP-conjugated secondary antibody (Anti-his HRP for scFv A1, Donkey anti-sheep HRP antibody for sheep anti-VWF antibody) (1:4,000). Readings were measured at 450 nm on a BMG Optima multi-well reader.

[5] = molecular target: VWF (Homo sapiens, UniProt P04275); test: VWF binding in the presence or absence of ristocetin (FIG. 7)
[6] = tested on: platelet aggregation / thrombus formation; test: Progressive shear gradient flow model: whole blood over collagen type I patches in straight channels; type: cell-based, human; settings: scFv A1 5 µg ml^-1, 1,000 s^-1
Source text: Fluid dynamics were simulated with a COMSOL Multiphysics 4.2 laminar flow module applied to three-dimensional meshes. For all simulations, no-slip boundary conditions and Newtonian fluids were assumed. To obtain meshes from the plain channel geometries, channel dimensions were taken from the original computer-aided design (CAD) files and reconstructed in COMSOL. To obtain meshes from platelet aggregate geometries, confocal fluorescence microscopy image z-stacks of labeled platelets were processed in ImageJ. Each image in a z-stack was converted into a binary image by thresholding, and an x-y heightmap was constructed by summing all binary data in a z-stack followed by multiplying the result with the height of the original z-stack as documented by the confocal microscope. […] Input flow parameters were set based on pump settings as used in the experiments, and were adjusted to account for the reduced width of the fluorescence aggregate meshes compared to the full channel geometries. […]
as §1, with “Time-lapse z-stack images of platelet deposition were captured in multiple track, resonant scanning mode, using a Nikon A1R confocal microscope system.” left out

Complex formation with denatured VWF [3]: did not show any complex formation
Binding to isolated VWF A1 domain [4]: did not bind
Mechanism of VWF binding (dependence on conformation) [5]: conformational-dependent binding
B1: scFv A1: single chain antibody combining variable heavy chain of mAb CR1 with variable light chain of mAb CR2; VH SEQ ID NO: 11, VL SEQ ID NO: 10 (antibody, V domains shown)
VH: QVQLQQPGAELVRPGASVKLSCKASGYSFTNYWMSWVKQRPGQGLEWIGMIHPSDSDTRLNQKFKDKATLTVDKSSSTAYMQLSSPTSEDSAGLLLCKKFEGWLPVLLGPRHHSHSLLS
VL: DIELTQSPASLAVSLGQSYRASCKSVSTSGYSYMHWNQQKPGQPPRLLIYLVSNLESGVPARFSGSGSGTDFTLNIHPVEEEDAATYYCQHIRELTRSEGDQAEINR
modifications: scFv linker; Mouse
Thrombus formation ([1]; 2000 s^-1 constant shear): no effect
Thrombus formation ([1]; SRGs (187-1,500 s^-1)): inhibited thrombus formation
Thrombus formation ([1]; SRGs (300-2,000 s^-1)): inhibited thrombus formation
Inhibition of thrombus formation ([1]; scFv A1 2.5 µg ml^-1): absent
Inhibition of thrombus formation ([1]; scFv A1 5 µg ml^-1): showed inhibition
Relative thrombus growth (ratio of intensity in the last frame over the first frame) ([1]; scFv A1 5 µg ml^-1, SRG, 1,500 s^-1 in stenosis apex, control 1.58±0.22, p<0.001): 1.2±0.09
Relative thrombus growth (ratio of intensity in the last frame over the first frame) ([1]; scFv A1 5 µg ml^-1, SRG, 2,000 s^-1 in stenosis apex, control 1.85±0.28, p<0.0001): 1.17±0.07
Relative thrombus growth (ratio of intensity in the last frame over the first frame) ([1]; scFv A1 5 µg ml^-1, constant shear 1,500 s^-1, 10 minutes, other value of the pair 1.48±0.16): 1.62±0.2
Relative thrombus growth (ratio of intensity in the last frame over the first frame) ([1]; scFv A1 5 µg ml^-1, constant shear 2,000 s^-1, 10 minutes, other value of the pair 2.11±0.23): 1.9±0.36
Effect on platelet deposition ([1]; scFv A1 5 µg ml^-1, constant shear, straight channel sections): no effect
Inhibition of thrombus formation ([1]; scFv A1 10 µg ml^-1): showed inhibition
Ristocetin-induced platelet agglutination ([2]; plasma VWF preincubated with scFv A1 and ristocetin prior to platelet binding): minor inhibitory effect
Ristocetin-induced agglutination of isolated platelets ([2]; scFv A1 up to 80 µg ml^-1, ristocetin 0.75 mg ml^-1, plasma VWF present): did not result in delayed or reduced agglutination
Platelet aggregation in the rear area of the collagen patch ([6]; constant shear, SRGs absent): did not reduce; also recorded: not at the rear
Platelet aggregation at the front area of the collagen patch ([6]; local shear gradient): selectively attenuated; also recorded: inhibited platelet aggregation only at the front of the patch
